Reference: US20260274993A1 (HUMMINGBIRD BIOSCIENCE PTE, published 2026)
Read-outs that look alike come from different tables or passages of the source.

Key:
[1] = molecular target: T1, 3A6 mutant FR1; experiment: flow cytometry, % parent (FITC), CHO cells expressing 3A6 mutant FR1
T1 construct: also called 3A6 FR1; 3A6-FR1 (VH4-34 FR1 mutant)
Description: (§1) FACS was performed according to standard protocols. Briefly, cells were assayed in PBS with 0.5% BSA and 2 mM EDTA. […] Following this, cells were incubated with a secondary anti-mouse FITC antibody for 30 mins at 4° C. FITC readout was measured by FACS on a benchtop flow cytometer.

[2] = molecular target: T2, Tabalumab mutant FR1; experiment: flow cytometry, % parent (FITC), CHO cells expressing tabalumab mutant FR1
T2 construct: also called Taba FR1
T2 sequence (VH, as listed by the source, chain 1 of 2): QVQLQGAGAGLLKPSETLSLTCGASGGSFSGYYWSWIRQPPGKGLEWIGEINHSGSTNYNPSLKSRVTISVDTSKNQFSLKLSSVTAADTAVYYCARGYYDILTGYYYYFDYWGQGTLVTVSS
T2 sequence (VL, as listed by the source, chain 2 of 2): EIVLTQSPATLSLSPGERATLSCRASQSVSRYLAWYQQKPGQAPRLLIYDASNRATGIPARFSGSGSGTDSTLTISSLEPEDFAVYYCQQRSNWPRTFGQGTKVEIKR
Description: as §1

[3] = molecular target: T3, Zanolimumab mutant FR1; experiment: flow cytometry, % parent (FITC), CHO cells expressing zanolimumab mutant FR1
T3 construct: also called Zano FR1
T3 sequence (VH, as listed by the source, chain 1 of 2): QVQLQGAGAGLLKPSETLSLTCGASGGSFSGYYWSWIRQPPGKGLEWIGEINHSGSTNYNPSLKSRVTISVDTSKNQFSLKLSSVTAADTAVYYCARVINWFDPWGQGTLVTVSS
T3 sequence (VL, as listed by the source, chain 2 of 2): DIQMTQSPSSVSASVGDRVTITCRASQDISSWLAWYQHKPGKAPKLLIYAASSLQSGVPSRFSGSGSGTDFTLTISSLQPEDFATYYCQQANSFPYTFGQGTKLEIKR
Description: as §1

[4] = molecular target: T4, 3A6; experiment: flow cytometry, EC50 of % parent (FITC), CHO cells overexpressing surface 3A6
T4 construct: also called 3A6 antibody (containing VH4-34 antigen); 3A6 (VH4-34 antigen)
T4 sequence (VH, as listed by the source, chain 1 of 2): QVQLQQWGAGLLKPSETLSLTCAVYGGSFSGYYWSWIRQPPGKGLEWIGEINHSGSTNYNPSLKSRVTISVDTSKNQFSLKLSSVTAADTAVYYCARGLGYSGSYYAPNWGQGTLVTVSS
T4 sequence (VL, as listed by the source, chain 2 of 2): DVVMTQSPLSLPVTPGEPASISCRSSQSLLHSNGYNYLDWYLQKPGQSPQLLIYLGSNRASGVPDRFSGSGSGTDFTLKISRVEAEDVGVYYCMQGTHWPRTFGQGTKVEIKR
Description: as §1

[5] = molecular target: T5, antibodies containing VH4-34 endogenously expressed by cell line OCI-Ly3; experiment: flow cytometry, EC50 of % parent (PE), OCI-Ly3 cells endogenously expressing VH4-34
T5 construct: Whole, on cells; also called VH4-34-expressing cell line OCI-Ly3
Description: FACS was performed according to standard protocols. Briefly, cells were assayed in PBS with 0.5% BSA and 2 mM EDTA. Live dead staining was performed with a live dead cell dye for 15 minutes at 4° C. […] Following this, cells were incubated with a secondary PE goat anti-mouse IgG for 30 mins at 4° C. and PE readout was measured.

[6] = molecular target: tabalumab; experiment: flow cytometry, EC50 of % parent (FITC), CHO cells overexpressing surface tabalumab (TABA)
tabalumab, sequence (VH, as listed by the source, chain 1 of 2): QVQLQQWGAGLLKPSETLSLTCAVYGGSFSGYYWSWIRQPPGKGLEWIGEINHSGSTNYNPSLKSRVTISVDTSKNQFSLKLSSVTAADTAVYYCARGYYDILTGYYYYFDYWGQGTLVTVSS
Description: as §1

[7] = molecular target: T6, zanolimumab; experiment: flow cytometry, EC50 of % parent (FITC), CHO cells overexpressing surface zanolimumab (ZANO)
T6 construct: VH4-34-containing antibody used as the antigen, overexpressed on the surface of CHO cells; also called Zano.hIgG1
T6 sequence (VH, as listed by the source, chain 1 of 2): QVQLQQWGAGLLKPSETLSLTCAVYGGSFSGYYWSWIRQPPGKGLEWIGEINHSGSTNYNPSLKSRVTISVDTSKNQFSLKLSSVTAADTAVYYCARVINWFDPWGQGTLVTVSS
Description: as §1

[8] = molecular target: T3, Zanolimumab mutant FR1; experiment: flow cytometry, % parent (FITC), CHO cells expressing zanolimumab mutant FR1; remark: listed apart in the source
Description: as §1

[9] = molecular target: T4, 3A6; experiment: flow cytometry, EC50 of % parent (FITC), CHO cells overexpressing surface 3A6; remark: listed apart in the source
Description: as §1

[10] = molecular target: tabalumab; experiment: flow cytometry, EC50 of % parent (FITC), CHO cells overexpressing surface tabalumab (Taba)
Description: as §1

[11] = molecular target: T6, zanolimumab; experiment: flow cytometry, EC50 of % parent (FITC), CHO cells overexpressing surface zanolimumab (Zano); curve in FIG. 1A reaches only about 45 % parent
Description: as §1

T1 sequence (VH, as listed by the source, chain 1 of 2): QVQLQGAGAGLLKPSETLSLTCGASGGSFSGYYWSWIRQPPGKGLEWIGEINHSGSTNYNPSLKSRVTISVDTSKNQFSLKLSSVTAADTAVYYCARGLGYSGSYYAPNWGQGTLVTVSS

| EC50 [4] [nM] | EC50 [5] [nM] | EC50 [6] [nM] | EC50 [7] [nM] | EC50 [9] [nM] | EC50 [10] [nM] | EC50 [11] [nM] | Binder | binding result [1] | binding result [2] | binding result [3] | binding result [8] |
| --- | --- | --- | --- | --- | --- | --- | --- | --- | --- | --- | --- |
| 8.96 | 0.273 | 0.0444 | 10.4 |  |  |  | D011-6039.IgG2a (antibody, V domains shown) VH: EVMLVESGGGLVQPGGSLKLSCAASGFTFSSYGMSWVRQTPDKRLELVATINSNGVNTYYPDSVKGRFTISRDNAKNTLYLQMSSLKSEDTAMYYCARVPFDYWGQGTSLTVSS VL: DIVMTQSPAIMSASLGEKVTMSCRASSSVDYIYWYQQKSDASPKLWIYYTSTLAPGVPARFSGSGSGNSYSLTISSMEGEDAATYYCQQFTSSPWTFGGGTRLEIKR | no binding (tested: Log M about -7.2 (about 7e-8 M)) | no binding (tested: Log M about -7.2 (about 7e-8 M)) | no binding (tested: Log M about -7.2 (about 7e-8 M)) |  |
|  |  |  |  | 1.52 | 0.0823 | 3.49 | D011-1E11p.IgG2a (antibody, V domains shown) VH: EVQLQQSGPELVKPGASMKISCKASGYSFTGSTMNWVKQSPGKNLEWIGLINPYNGGTSYNQKFEGKATLTVDKSSSTAYMELLSLTSVDSAVYYCASRGKNGYDGRDFDCWGQGTSVTVSS VL: DIVLTQSPLSLPVNIGDQASISCKSTKSLLNSGGFTYLDWYLQKPGQSPQLLIYLVSNRFSGVPDRFSGSGSGTDFTLKISRVEAEDLGVYYCFQSNYFPFTFGSGTKLEIKR |  |  |  | no binding (tested: Log M about -7.2 (about 7e-8 M)) |
